For series [1] the following is noted: glycan lost.
Series [2] can be described thus: anti-ACE2 western blot, HEK293T lysates. The note with it: glycan lost; control: WT hACE2. Background: Immunoblotting shows a protein as a band on a membrane.
Series [3] is described as follows: confocal immunofluorescence, HeLa cells. Conditions: glycan lost; control: WT hACE2.
Series [4] can be described thus: flow cytometry, surface/total MFI ratio, HeLa. The note with it: glycan lost; control: WT hACE2. A general note: In flow cytometry, cells or beads pass a laser one at a time.
The nature of series [5]: syncytia formation, GFP+ area, co-transfected HEK293T. Conditions: glycan lost; control: WT hACE2.
A short description of series [6]: qRT-PCR of viral N RNA, transfected HEK293T. The note with it: glycan lost; control: WT hACE2. A general note: Real-time PCR tracks product formation cycle by cycle.
A short description of series [7]: VSVpp infection, BFP+ cells, HEK293T without TMPRSS2. Conditions: glycan lost; control: WT hACE2.

Where two headings read alike, the source gives them in different places.

Regarding “hACE2 (angiotensin-converting enzyme 2): N53A”, the “other: cell-cell fusion” value in series [1] is recorded as “decreases”; in series [5], “no change”. The “other: viral entry receptor function, fold_change” value in series [1] was “no change”. Also, the expression_or_secretion result in series [2] is listed as “no change”. Further, the localisation_or_trafficking entry in series [3] and in series [4] was “no change” each time.
Regarding “hACE2 (angiotensin-converting enzyme 2): N90A”, in series [1], the “other: susceptibility to genuine virus infection” value is reported as “no change”; the “other: susceptibility to genuine virus infection, fold_change” value is “increases”; the “other: viral entry receptor function, fold_change” value is on record as “no change”. Also, in series [2], the expression_or_secretion entry is on record as “no change”. Also, in series [3], the localisation_or_trafficking result was “no change”. The localisation_or_trafficking entry in series [4] is “no change”.
As for “hACE2 (angiotensin-converting enzyme 2): N103A”, the “other: viral entry receptor function, fold_change” value in series [1] was “no change”. Further, in series [2], the expression_or_secretion entry is on record as “no change”. The localisation_or_trafficking result in series [3] and in series [4] was “no change” each time.
As to “hACE2 (angiotensin-converting enzyme 2): N322A”, in series [1], the “other: Camostat sensitivity of S-mediated entry” value was “decreases”. Besides, the “other: susceptibility to genuine virus infection” value is “increases” in series [1] and “decreases” in series [6]. For the same substance, the “other: viral entry receptor function, fold_change” value in series [1] is listed as “increases”. Besides, the “other: viral entry receptor function” value in series [1] (control: WT hACE2) is “no change”; in series [7], “increases”. Moreover, in series [2], the expression_or_secretion entry was “no change”. The localisation_or_trafficking entry in series [3] and in series [4] was “no change” in each case.
In the case of “hACE2 (angiotensin-converting enzyme 2): N432A”, the “other: viral entry receptor function, fold_change” value in series [1] is recorded as “no change”. Besides, the expression_or_secretion result in series [2] is on record as “no change”. The localisation_or_trafficking result in series [3] and in series [4] was “no change” throughout.
In the case of “hACE2 (angiotensin-converting enzyme 2): N546A”, the “other: viral entry receptor function, fold_change” value in series [1] is recorded as “no change”. In addition, the expression_or_secretion result in series [2] is “no change”. Also, the localisation_or_trafficking entry in series [3] and in series [4] was “no change” throughout.
On to “hACE2 (angiotensin-converting enzyme 2): N690A”, for which, in series [1], the “other: viral entry receptor function, fold_change” value is recorded as “increases”. Besides, the expression_or_secretion result in series [2] is recorded as “no change”. Also, the localisation_or_trafficking entry in series [3] and in series [4] was “no change” in each case. For the same substance, in series [6], the “other: susceptibility to genuine virus infection” value is “no change”. Further, the “other: susceptibility to genuine virus infection, fold_change” value in series [6] is reported as “no change”. For the same substance, the “other: viral entry receptor function” value in series [7] is given as “increases”.
As for “hACE2 (angiotensin-converting enzyme 2): T92I”, the expression_or_secretion result in series [2] is recorded as “no change”. Further, the localisation_or_trafficking entry in series [3] and in series [4] was “no change” throughout.

The values are drawn from publication PMC12090729.
